Experimental findings from paper PMC2195672 are described below.

A word on the Kd: it is the constant that tells how readily two partners part at equilibrium. A low value points to tighter binding.

The experiment deals with HLA-A2 molecules immunoaffinity-purified from Jesthom cells, with added human β2-microglobulin (human (endogenous in Jesthom) | human).

HBV core 18-27, synthetic peptide: the Kd turned out to be 40 nM.
